Source: the supplement of paper PMC9170038

System: K4 kissing-loop RNA reporter
Test: apparent KD of K4 kissing-loop reporter; higher = weaker reporter binding
Conditions: Eterna round: R107
Method: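 RNA-MaP round R107: designed RNA switches with theophylline, tryptophan, arginine or FMN aptamers are transcribed on-chip within common flanks. They are titrated with a labelled K4 kissing-loop RNA reporter in RNA-MaP buffer (100 mM Tris pH 7.5, 80 mM KCl, 4 mM MgCl2), without ligand or with the indicated ligand. Median apparent KD per design.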

[1] = input ligand: theophylline 20 uM
[2] = input ligand: tryptophan 2.4 mM
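Also: bound reporter read as fluorescence of individual clusters on recovered sequencing chips by microscopy, with normalized cluster intensities fitted with a binding model.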

ACUGGGUUGACGAAAGUCAACAAAUGAGAAGGAGCGCACGAAAGUGCAGGUAGGUCGCUCAUUCCAGUGAUGUUGGAUCACCAGA [#SwitchBubble 19 #K4Late]
apparent KD of K4 kissing-loop reporter (input ligand: FMN 200 uM): 0.531 µM | apparent KD of K4 kissing-loop reporter (input ligand: arginine 13.2 mM): 0.456 µM | apparent KD of K4 kissing-loop reporter (input ligand: none): 0.836 µM | apparent KD of K4 kissing-loop reporter [1]: 0.831 µM | apparent KD of K4 kissing-loop reporter [2]: 0.464 µM

AGAAACUUGUAUGUCGGGUGUGCGCGCGAUACCAGCCAAAUGGAUGGCCCUUGGCAGCGCAGCGAGUGAUGUUCGCCCGCUUGAC [Exclusion Theophylline A GF 22]
apparent KD of K4 kissing-loop reporter (input ligand: FMN 200 uM): 0.251 µM | apparent KD of K4 kissing-loop reporter (input ligand: arginine 13.2 mM): 0.239 µM | apparent KD of K4 kissing-loop reporter (input ligand: none): 0.302 µM | apparent KD of K4 kissing-loop reporter [1]: 0.354 µM | apparent KD of K4 kissing-loop reporter [2]: 0.232 µM

AGAACUGUCUUGGAUACCAGUGAUGUUGGUAUCUGUGUGUGAGUGCAAAGCGUCCCACAUUGCCCUUGGCAGCUAAGACUGUUCA [Omei KL Theo B Exc A v1]
apparent KD of K4 kissing-loop reporter (input ligand: FMN 200 uM): 0.147 µM | apparent KD of K4 kissing-loop reporter (input ligand: arginine 13.2 mM): 0.129 µM | apparent KD of K4 kissing-loop reporter (input ligand: none): 0.137 µM | apparent KD of K4 kissing-loop reporter [1]: 0.182 µM | apparent KD of K4 kissing-loop reporter [2]: 0.132 µM

AGAAGGAGAACUGCAAGAACUCCUUCAGACUAGGAUAUCAGGAAACUGAGAAGGAGUCAACUUGCAGUGAUGUUGCAAGAAUAAU [[F]''-[K]'-[F]'-[F1]-[F2]-[K1]-[K2]_Design1]
apparent KD of K4 kissing-loop reporter (input ligand: FMN 200 uM): 0.155 µM | apparent KD of K4 kissing-loop reporter (input ligand: arginine 13.2 mM): 0.114 µM | apparent KD of K4 kissing-loop reporter (input ligand: none): 0.119 µM | apparent KD of K4 kissing-loop reporter [1]: 0.103 µM | apparent KD of K4 kissing-loop reporter [2]: 0.131 µM

AGACCUCAGUGAUGUUGAGGUAACGCUGAUACCAGUGACUUAAUUCACCCUUGGCAGCAGUCCACCAAGGUAUCUGAUUAGGUCU [Theo A Ex t5]
apparent KD of K4 kissing-loop reporter (input ligand: FMN 200 uM): 0.153 µM | apparent KD of K4 kissing-loop reporter (input ligand: arginine 13.2 mM): 0.163 µM | apparent KD of K4 kissing-loop reporter (input ligand: none): 0.133 µM | apparent KD of K4 kissing-loop reporter [1]: 0.144 µM | apparent KD of K4 kissing-loop reporter [2]: 0.138 µM

AGACGCCAGUCGGCCGCCACUCACAGCAGUGAUGUUGCUGAGAAUCUAGAAGAGUGAUGUUCUUAGAGGACCGGGACUCCAGUCG [Same State Tryptophan B GF 7]
apparent KD of K4 kissing-loop reporter (input ligand: FMN 200 uM): 0.354 µM | apparent KD of K4 kissing-loop reporter (input ligand: arginine 13.2 mM): 0.363 µM | apparent KD of K4 kissing-loop reporter (input ligand: none): 0.383 µM | apparent KD of K4 kissing-loop reporter [1]: 0.311 µM | apparent KD of K4 kissing-loop reporter [2]: 0.306 µM

AGACUACCACACUGUCAAUAGACAGUGAAUUAGGAUAUGCUGAUAAGCAGAAGGAGUGAUGUUCCGAGGUAGUCAAUAAAAUAAU [FmnAX 13 U30+G66]
apparent KD of K4 kissing-loop reporter (input ligand: FMN 200 uM): 0.22 µM | apparent KD of K4 kissing-loop reporter (input ligand: arginine 13.2 mM): 0.204 µM | apparent KD of K4 kissing-loop reporter (input ligand: none): 0.216 µM | apparent KD of K4 kissing-loop reporter [1]: 0.283 µM | apparent KD of K4 kissing-loop reporter [2]: 0.211 µM

AGACUACCACACUGUCAAUAGACAGUGGACUAGGAUAUGCUGAUAAGCAGAAGGAGUGAUGUUCCUUGGUAGUCAAUAAAAUAAU [FmnAX 13 G28+U67]
apparent KD of K4 kissing-loop reporter (input ligand: FMN 200 uM): 0.308 µM | apparent KD of K4 kissing-loop reporter (input ligand: arginine 13.2 mM): 0.269 µM | apparent KD of K4 kissing-loop reporter (input ligand: none): 0.253 µM | apparent KD of K4 kissing-loop reporter [1]: 0.335 µM | apparent KD of K4 kissing-loop reporter [2]: 0.265 µM

AGACUUCACCGAAGGAGCGACGUAGCCUAGUGAUGUUAGGCACGAGAGAAAUCUCGUGUACGUCAGGUAGGUCGCGGUGAAGUCA [Omei KL Arginine B SS C v5]
apparent KD of K4 kissing-loop reporter (input ligand: FMN 200 uM): 0.99 µM | apparent KD of K4 kissing-loop reporter (input ligand: arginine 13.2 mM): 0.63 µM | apparent KD of K4 kissing-loop reporter (input ligand: none): 0.961 µM | apparent KD of K4 kissing-loop reporter [1]: 0.827 µM | apparent KD of K4 kissing-loop reporter [2]: 1.04 µM

AGAGAUAUAUGAGGAUAUGAGUUAGUUAAUGAGUGAGUUUUAGUGUUGUUUGGUUAGUGAUGUUAUUUAGAAGGCGUGAGUGAUG [ttytmullin]
apparent KD of K4 kissing-loop reporter (input ligand: FMN 200 uM): 0.0988 µM | apparent KD of K4 kissing-loop reporter (input ligand: arginine 13.2 mM): 0.0752 µM | apparent KD of K4 kissing-loop reporter (input ligand: none): 0.0749 µM | apparent KD of K4 kissing-loop reporter [1]: 0.106 µM | apparent KD of K4 kissing-loop reporter [2]: 0.0759 µM

AGAGGAAAUAGAAGGAGCGGCGCCAGUGAUGUUGGAUGCCGCGGGUGAAUCAGGUCAUAGUGCCAGGUAGGUCGCUAUUUCAGCG [Larebeve]
apparent KD of K4 kissing-loop reporter (input ligand: FMN 200 uM): 0.177 µM | apparent KD of K4 kissing-loop reporter (input ligand: arginine 13.2 mM): 0.112 µM | apparent KD of K4 kissing-loop reporter (input ligand: none): 0.141 µM | apparent KD of K4 kissing-loop reporter [1]: 0.161 µM | apparent KD of K4 kissing-loop reporter [2]: 0.138 µM

AGAUAGGGCUGAAGGAGCGUCGGAAAAGAAAAGAUGAAAUCCAGUGAUGUUGGAUAAAUCCGACAGGUAGGUCGCAGUUUUAUGA [#01 K4 Arginine B Same State]
apparent KD of K4 kissing-loop reporter (input ligand: FMN 200 uM): 0.126 µM | apparent KD of K4 kissing-loop reporter (input ligand: arginine 13.2 mM): 0.129 µM | apparent KD of K4 kissing-loop reporter (input ligand: none): 0.133 µM | apparent KD of K4 kissing-loop reporter [1]: 0.161 µM | apparent KD of K4 kissing-loop reporter [2]: 0.12 µM

AGCAGUCCAGGAUCGAAAGAUCCUGAGGUCCGAGGACCGGUACGGCCGCCACUCGGAGUGAUGUUCCGAAGACUGCAAAAUAAAA [#SwitchBubble 5]
apparent KD of K4 kissing-loop reporter (input ligand: FMN 200 uM): 0.302 µM | apparent KD of K4 kissing-loop reporter (input ligand: arginine 13.2 mM): 0.236 µM | apparent KD of K4 kissing-loop reporter (input ligand: none): 0.108 µM | apparent KD of K4 kissing-loop reporter [1]: 0.135 µM | apparent KD of K4 kissing-loop reporter [2]: 0.105 µM

AGCAUUAUCAGAAGGAGCGUGUAUAAAUCAAUAGUAUUGUAUUCGAGUGAUGUUCGUAAUACACAGGUAGGUCGCUGAUAUUGCA [JR_ExcArginiB_Sub002]
apparent KD of K4 kissing-loop reporter (input ligand: FMN 200 uM): 0.182 µM | apparent KD of K4 kissing-loop reporter (input ligand: arginine 13.2 mM): 0.172 µM | apparent KD of K4 kissing-loop reporter (input ligand: none): 0.17 µM | apparent KD of K4 kissing-loop reporter [1]: 0.175 µM | apparent KD of K4 kissing-loop reporter [2]: 0.161 µM

AGCAUUUUCAGAAGGAGCGUGAAUUAUUCUUAAUUAUAUUAUACGAGUGAUGUUCGUGUUUCACAGGUAGGUCGCUGAUAUAGCA [JR_SSArginiB_Sub004]
apparent KD of K4 kissing-loop reporter (input ligand: FMN 200 uM): 0.0514 µM | apparent KD of K4 kissing-loop reporter (input ligand: arginine 13.2 mM): 0.0903 µM | apparent KD of K4 kissing-loop reporter (input ligand: none): 0.0477 µM | apparent KD of K4 kissing-loop reporter [1]: 0.0983 µM | apparent KD of K4 kissing-loop reporter [2]: 0.0455 µM

AGCGAUGUUUUCUCUAAGAGUGAUGUUUUUCGAGGACCGGUACGGCCGCCACUCGAAUAAAGUGUGCGGUAGUGAGCUGUUGACA [#18 K4 Tryptophan A Exclusion]
apparent KD of K4 kissing-loop reporter (input ligand: FMN 200 uM): 0.71 µM | apparent KD of K4 kissing-loop reporter (input ligand: arginine 13.2 mM): 0.55 µM | apparent KD of K4 kissing-loop reporter (input ligand: none): 0.747 µM | apparent KD of K4 kissing-loop reporter [1]: 0.58 µM | apparent KD of K4 kissing-loop reporter [2]: 0.718 µM

AGCGUCCCUACGGCCGCCACUGGGAGUGAUGUUCCCAGGUUAGGCCUGAGGAUACUAAGGAUCGCCAGGACCGGGUAGCGACCAU [Azaonbe]
apparent KD of K4 kissing-loop reporter (input ligand: FMN 200 uM): 0.0885 µM | apparent KD of K4 kissing-loop reporter (input ligand: arginine 13.2 mM): 0.0811 µM | apparent KD of K4 kissing-loop reporter (input ligand: none): 0.0803 µM | apparent KD of K4 kissing-loop reporter [1]: 0.0692 µM | apparent KD of K4 kissing-loop reporter [2]: 0.0923 µM

AGCUCAGAGUGACUCGAUAAGAGUCACAAACGAGGACCGGUACGGCCGCCACUCGAAAUAACGAGAGUGAUGUUCUCACUGAGCA [FiskerMod 11 - Jieux - Same State Tryptophan A]
apparent KD of K4 kissing-loop reporter (input ligand: FMN 200 uM): 1.15 µM | apparent KD of K4 kissing-loop reporter (input ligand: arginine 13.2 mM): 0.635 µM | apparent KD of K4 kissing-loop reporter (input ligand: none): 1.26 µM | apparent KD of K4 kissing-loop reporter [1]: 0.808 µM | apparent KD of K4 kissing-loop reporter [2]: 0.378 µM

AGCUCAGAGUGACUCGAUAAGAGUCACAAACGAGGACCGGUACGGCCGCCACUCGAAAUAACGAGAGUGAUGUUCUCGCUGAGCA [#SwitchBubble 1 #StaticStem #K4Late]
apparent KD of K4 kissing-loop reporter (input ligand: FMN 200 uM): 1.16 µM | apparent KD of K4 kissing-loop reporter (input ligand: arginine 13.2 mM): 0.517 µM | apparent KD of K4 kissing-loop reporter (input ligand: none): 1 µM | apparent KD of K4 kissing-loop reporter [1]: 0.285 µM | apparent KD of K4 kissing-loop reporter [2]: 0.34 µM

AGCUCAGAGUGACUCGAUAAGAGUCACAAACGAGGACCGGUACGGCCGCCACUCGAAAUAACGAGAGUGAUGUUUUCGCUGAGCA [FiskerMod 6 - Jieux - Same State Tryptophan A]
apparent KD of K4 kissing-loop reporter (input ligand: FMN 200 uM): 0.935 µM | apparent KD of K4 kissing-loop reporter (input ligand: arginine 13.2 mM): 0.63 µM | apparent KD of K4 kissing-loop reporter (input ligand: none): 0.857 µM | apparent KD of K4 kissing-loop reporter [1]: 0.66 µM | apparent KD of K4 kissing-loop reporter [2]: 0.541 µM

AGGAGCGUGGGAUGGAAAUCGCACGCUCCUCGAGGACCGGUACGGCCGCCACUCGCUCGCGCCGAGUGAUGUUCGGCCGGCGAAC [#2 Same State - Tryptophan A Attempt #11 (HarryS)]
apparent KD of K4 kissing-loop reporter (input ligand: FMN 200 uM): 0.131 µM | apparent KD of K4 kissing-loop reporter (input ligand: arginine 13.2 mM): 0.111 µM | apparent KD of K4 kissing-loop reporter (input ligand: none): 0.451 µM | apparent KD of K4 kissing-loop reporter [1]: 0.178 µM | apparent KD of K4 kissing-loop reporter [2]: 0.482 µM
